The source of these data is the supplement of paper PMC7125110.

± gives the standard error. For some of these results: Fewer inactive variants are shown than the library holds.

The chains are these.
B1: glmS ribozyme (parent)
chain: AUAAAAGCGCCAGAACUACAGAAAUGUAGUUGACGAGGAGGAGGUUUAUCGAAUUUUCGGCGGAUGCCUCCAAA

Holding throughout (conditions): with glucosamine-6-phosphate
Series [1] covers variants of B1. The experiment in a line: kcat; higher = faster cleavage; RNA array. Summed up: (§1)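 Barcoded ribozyme variants were transcribed in situ on sequenced MiSeq chips by E. coli RNA polymerase. At 37 °C, a hybridised Cy3 probe tracked them while glucosamine-6-phosphate (40 μM to 10 mM) in HEPES/KCl/Mg(OAc)2 buffer flowed in and tiles were imaged over ~14 h. Per-tile medians of signals normalised to baseline and to non-cleaving reference variants were fit to one- or two-exponential decays, giving kobs. kcat and KM came from weighted Michaelis–Menten fits across concentrations.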

Series [2] covers variants of B1. Put plainly: self-cleavage kobs at 40 uM GlcN6P; higher = faster cleavage; RNA array. Summed up:
as §1

Series [3] covers variants of B1. Put plainly: KM; higher = weaker cofactor use; RNA array. Summed up: as §1
In series [4] the parent is B1. The experiment in a line: self-cleavage kobs at 640 uM GlcN6P; higher = faster cleavage; RNA array. Summed up: as §1
Variants of B1 are the subject of series [5]. Put plainly: self-cleavage kobs at 10000 uM GlcN6P; higher = faster cleavage; RNA array. Summed up:
as §1

In series [6] the parent is B1. The experiment in a line: self-cleavage kobs at 160 uM GlcN6P; higher = faster cleavage; RNA array. Summed up:
as §1

Series [7] covers variants of B1. Put plainly: self-cleavage kobs at 2500 uM GlcN6P; higher = faster cleavage; RNA array. Summed up: as §1

Consider AUAAAGGCGCCAGAACUACAGAAAUGUAGUUUACGAGGAGGAGGUUUAUCGAAUUUUCGGCGGAUGCCUCCAAA [A6G G32U], for which the kcat with glucosamine-6-phosphate [1] is less than 1e-05 s⁻¹. The “self-cleavage kobs at 40 uM GlcN6P” value in the series with glucosamine-6-phosphate [2] was less than 1e-05 s⁻¹.

For the variant AUAAAAGCGCCAGAACUACAGAAAUGUAGUUGACGAGGAGGAGGUUUAUCGAAUCUUCGGCCGAUGCCUCCAAA [U55C G62C], the kcat with glucosamine-6-phosphate [1] was determined as 1.58e-05 ± 2.1e-06 s⁻¹. Besides, the KM with glucosamine-6-phosphate [3] is 1220 ± 460 µM.

For AUAAAAGCGUCAGAACUACAGAAAUGUAGUUGACGGGGAGGAGGUUUAUCGAAUUUUCGGCGGAUGCCUCCAAA [C10U A36G], in the series with glucosamine-6-phosphate [1], the kcat was less than 1e-05 s⁻¹. Also, in the series with glucosamine-6-phosphate [2], the “self-cleavage kobs at 40 uM GlcN6P” value is less than 1e-05 s⁻¹. The “self-cleavage kobs at 640 uM GlcN6P” value in the series with glucosamine-6-phosphate [4] is less than 1e-05 s⁻¹. The “self-cleavage kobs at 10000 uM GlcN6P” value with glucosamine-6-phosphate [5] is less than 1e-05 s⁻¹.

AUAAAAGCGCCAGAACUACAGAAAUGUAGAUGACGAGGAGGAGGUUUAUCGAAUUUUCGGCGGGUGCCUCCAAA [U30A A64G]: the kcat with glucosamine-6-phosphate [1] stood at 0.00654 ± 0.00069 s⁻¹. Moreover, in the series with glucosamine-6-phosphate [3], the KM is 1670 ± 240 µM. Moreover, the “self-cleavage kobs at 40 uM GlcN6P” value with glucosamine-6-phosphate [2] was 0.000149 ± 2.6e-05 s⁻¹. In addition, the “self-cleavage kobs at 160 uM GlcN6P” value in the series with glucosamine-6-phosphate [6] was found to be 0.000656 ± 0.00022 s⁻¹. The “self-cleavage kobs at 640 uM GlcN6P” value with glucosamine-6-phosphate [4] was 0.00193 ± 0.00045 s⁻¹. In the series with glucosamine-6-phosphate [7], the “self-cleavage kobs at 2500 uM GlcN6P” value stood at 0.0035 ± 0.0008 s⁻¹. In addition, the “self-cleavage kobs at 10000 uM GlcN6P” value in the series with glucosamine-6-phosphate [5] turned out to be 0.00607 ± 0.0014 s⁻¹.

Take AUAAAAGCGCCAGAACUACAGAAAUGUAGUUGACGAGGAGGAGGUUUAACGAAUUUUCGGCGGAUGCCUCUAAA [U49A C71U]: in the series with glucosamine-6-phosphate [1], the kcat was determined as 1.56e-05 ± 3.2e-06 s⁻¹. Moreover, the “self-cleavage kobs at 640 uM GlcN6P” value in the series with glucosamine-6-phosphate [4] is less than 1e-05 s⁻¹.

On to AUAAAAGCGCCAGAACUACAGAAAUGUAGUUGACGAAGAGGAAGUUUAUCGAAUUUUCGGCGGAUGCCUCCAAA [G37A G43A], for which the catalytic constant (kcat) with glucosamine-6-phosphate [1] turned out to be 2.89e-05 ± 3.1e-06 s⁻¹. In addition, the “self-cleavage kobs at 40 uM GlcN6P” value with glucosamine-6-phosphate [2] was less than 1e-05 s⁻¹. For the same variant, the “self-cleavage kobs at 160 uM GlcN6P” value with glucosamine-6-phosphate [6] was less than 1e-05 s⁻¹. In addition, the “self-cleavage kobs at 10000 uM GlcN6P” value in the series with glucosamine-6-phosphate [5] stood at 2.52e-05 ± 8.5e-06 s⁻¹.

Regarding AUAAAAGCGCCAGUACUACAGAAAUGUAGUUGACGAGGACGAGGUUUAUCGAAUUUUCGGCGGAUGCCUCCAAA [A14U G40C], in the series with glucosamine-6-phosphate [1], the kcat stood at 0.000633 ± 5.1e-05 s⁻¹. In addition, the KM with glucosamine-6-phosphate [3] came to 1980 ± 320 µM. Besides, the “self-cleavage kobs at 40 uM GlcN6P” value in the series with glucosamine-6-phosphate [2] was 2.05e-05 ± 9e-06 s⁻¹. In addition, the “self-cleavage kobs at 160 uM GlcN6P” value with glucosamine-6-phosphate [6] is 5.2e-05 ± 9.2e-06 s⁻¹. Besides, the “self-cleavage kobs at 640 uM GlcN6P” value with glucosamine-6-phosphate [4] was 0.000142 ± 1.5e-05 s⁻¹. Further, in the series with glucosamine-6-phosphate [7], the “self-cleavage kobs at 2500 uM GlcN6P” value was found to be 0.000391 ± 4.2e-05 s⁻¹. In addition, the “self-cleavage kobs at 10000 uM GlcN6P” value in the series with glucosamine-6-phosphate [5] turned out to be 0.000522 ± 3.7e-05 s⁻¹.

Turning to AUAAAAGCGCCAGGACUACAGAAAUGUAGUUGACGAGGAGGAGGUAUAUCGAAUUUUCGGCGGAUGCCUCCAAA [A14G U46A], the kcat in the series with glucosamine-6-phosphate [1] amounted to 0.0109 ± 0.0043 s⁻¹. The “self-cleavage kobs at 40 uM GlcN6P” value with glucosamine-6-phosphate [2] is 0.000166 ± 3.1e-05 s⁻¹. Moreover, the “self-cleavage kobs at 160 uM GlcN6P” value in the series with glucosamine-6-phosphate [6] worked out at 0.000271 ± 7.3e-05 s⁻¹. In addition, the “self-cleavage kobs at 640 uM GlcN6P” value with glucosamine-6-phosphate [4] was 0.00157 ± 0.00055 s⁻¹. In addition, the “self-cleavage kobs at 2500 uM GlcN6P” value with glucosamine-6-phosphate [7] stood at 0.0054 ± 0.001 s⁻¹. In the series with glucosamine-6-phosphate [5], the “self-cleavage kobs at 10000 uM GlcN6P” value was 0.00723 ± 0.0012 s⁻¹.

As for AUAAAAGCGCCAGAACUACAGAAAUGUAGUUUACGAGGAGGAGGUUUAUCGAAUUCUCGGCGGAUGCCUCCAAA [G32U U56C], in the series with glucosamine-6-phosphate [1], the kcat amounted to 0.000177 ± 3.9e-05 s⁻¹. For the same variant, the KM in the series with glucosamine-6-phosphate [3] is 2990 ± 1300 µM. Besides, the “self-cleavage kobs at 40 uM GlcN6P” value with glucosamine-6-phosphate [2] is less than 1e-05 s⁻¹. Also, the “self-cleavage kobs at 640 uM GlcN6P” value in the series with glucosamine-6-phosphate [4] was found to be 2.54e-05 ± 8.9e-06 s⁻¹. Further, in the series with glucosamine-6-phosphate [7], the “self-cleavage kobs at 2500 uM GlcN6P” value turned out to be 0.000105 ± 2.1e-05 s⁻¹. Further, the “self-cleavage kobs at 10000 uM GlcN6P” value in the series with glucosamine-6-phosphate [5] came out at 0.000127 ± 2.4e-05 s⁻¹.
